In PMC3533786 (Molecular Microbiology, 2012):

What was measured:
[1] = biological target: Rap1a (Resistance associated protein 1a), without its N-terminal signal peptide, His6-tagged (Serratia marcescens Db10); test: SEC
[2] = biological target: Rap2a (Resistance associated protein 2a), without its N-terminal signal peptide, His6-tagged (Serratia marcescens Db10); test: SEC
[3] = biological target: Rap2b (Resistance associated protein 2b), without its N-terminal signal peptide, His6-tagged (Serratia marcescens Db10); test: SEC
[4] = biological target: Rap1a (Resistance associated protein 1a), without its N-terminal signal peptide, His6-tagged (Serratia marcescens Db10); test: SEC + other: quantitative in-gel SYPRO Orange staining
[5] = biological target: Tse1 (Pseudomonas aeruginosa) (UniProt Q9I2Q1); details: cited from earlier work
SEC = biological target: the molecule itself; test: SEC

## Rap1a (Resistance associated protein 1a), without its N-terminal signal peptide, His6-tagged (natural protein)
[1]
  stoichiometry N: 2

## Rap2a (Resistance associated protein 2a), without its N-terminal signal peptide, His6-tagged (natural protein)
[2]
  stoichiometry N: 2

## Rap2b (Resistance associated protein 2b), without its N-terminal signal peptide, His6-tagged (natural protein)
[3]
  stoichiometry N: 2

## Ssp1 (Secreted small protein 1), His6-tagged recombinant (natural protein)
[4]
  stoichiometry N (Ssp1 per Rap1a (molar)): 1

## Tsi1 (from UniProt Q9I2Q0)
[5]
  Kd: 3 nM

B1: Rap1b (Resistance associated protein 1b), without its N-terminal signal peptide, His6-tagged (natural protein)
chain: APIQDPVAFIKQMPYHQVVKELALSRCLAQVSDSDKAFSLDAARTANAMREWMPFDIESGDEKINVLIDKYKSRINEFHSETKDKSQGVTLNCLRLYHSPELDKLSRQLIAGNPDRTWNQDNAK
modifications: disulphide bond Cys54-Cys120
SEC
  stoichiometry N: 2
